T1: 人ICOS (HTRF测定) (human, UniProt Q9Y6W8 21-140, limits assumed)
T1 construct: the HTRF construct is described only in US 9,957,323; also called human ICOS; ICOS受体
T1 sequence (looked up): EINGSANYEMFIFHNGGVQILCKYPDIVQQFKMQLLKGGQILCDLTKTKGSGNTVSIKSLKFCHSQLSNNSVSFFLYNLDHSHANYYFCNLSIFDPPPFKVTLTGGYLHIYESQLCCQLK

T2: 小鼠ICOS (HTRF测定) (mouse, UniProt Q9WVS0 21-144, limits assumed)
T2 construct: the HTRF construct is described only in US 9,957,323; also called mouse ICOS; mICOS
T2 sequence (looked up): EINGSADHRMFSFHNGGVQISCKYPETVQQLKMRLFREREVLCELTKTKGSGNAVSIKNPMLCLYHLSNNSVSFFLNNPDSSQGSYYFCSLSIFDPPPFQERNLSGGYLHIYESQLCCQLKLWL

T3: 细胞表面上表达的人ICOS (human, UniProt Q9Y6W8 21-199)
T3 construct: whole, on cells; also called hICOS; human ICOS on CHO-S cells
T3 sequence (looked up): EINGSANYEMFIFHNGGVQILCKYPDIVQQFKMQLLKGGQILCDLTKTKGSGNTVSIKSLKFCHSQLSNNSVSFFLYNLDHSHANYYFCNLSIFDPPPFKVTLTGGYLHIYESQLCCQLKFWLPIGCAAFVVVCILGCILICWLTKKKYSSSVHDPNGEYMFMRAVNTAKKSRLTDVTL

T4: CHO-S细胞表面上表达的小鼠ICOS (mouse, UniProt Q9WVS0 21-200)
T4 construct: whole, on cells; also called mICOS; mouse ICOS on CHO-S cells
T4 sequence (looked up): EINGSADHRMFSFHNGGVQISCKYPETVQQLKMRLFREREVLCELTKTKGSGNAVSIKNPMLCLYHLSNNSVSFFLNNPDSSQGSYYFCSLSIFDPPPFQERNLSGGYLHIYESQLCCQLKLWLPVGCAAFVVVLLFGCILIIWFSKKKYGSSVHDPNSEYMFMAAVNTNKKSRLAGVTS


Assays:
人ICOS (HTRF测定) = target: T1, 人ICOS (HTRF测定); experiment: HTRF binding assay, HEK supernatant with human IgG1 antibody
小鼠ICOS (HTRF测定) = target: T2, 小鼠ICOS (HTRF测定); experiment: as above
细胞表面上表达的人ICOS [1] = target: T3, 细胞表面上表达的人ICOS; experiment: flow cytometry on CHO-S cells expressing ICOS, purified IgG1
CHO-S细胞表面上表达的小鼠ICOS [2] = target: T4, CHO-S细胞表面上表达的小鼠ICOS; experiment: as above
细胞表面上表达的人ICOS [3] = target: T3, 细胞表面上表达的人ICOS; experiment: Mirrorball assay on CHO-S cells expressing ICOS; total binding defined by reference antibody, non-specific by hybrid control hIgG1
CHO-S细胞表面上表达的小鼠ICOS [4] = target: T4, CHO-S细胞表面上表达的小鼠ICOS; experiment: as above
细胞表面上表达的人ICOS [5] = target: T3, 细胞表面上表达的人ICOS; experiment: receptor occupancy on patients' CD4 memory T cells, chip cytometry

Row | 作用 (% effect, 等式1) (人ICOS (HTRF测定)) [%] | 作用 (% effect, 等式1) (小鼠ICOS (HTRF测定)) [%] | fold over negative control (几何平均值) (细胞表面上表达的人ICOS [1]) | fold over negative control (几何平均值) (CHO-S细胞表面上表达的小鼠ICOS [2]) | 作用 (% effect) (细胞表面上表达的人ICOS [3]) [%] | 作用 (% effect) (CHO-S细胞表面上表达的小鼠ICOS [4]) [%] | binding result (细胞表面上表达的人ICOS [5]) | Binder
1 | > 5 | > 5 | > 10 倍 | > 10 倍 | > 1 | > 1 |  | CL-61091 (antibody, V domains shown) VH: QVQLMQSGTEVKKPGASVKVSCKTSGYTFTTYGITWVRQAPGQGLEWMGWISAYSGDTDYAQKFQGRVTVTTDTSTNTAYMELRSLKSDDTAVYYCARSSGWPHHYGMDVWGQGTTVTVSS VL: DIVMTQSPLSLPVTPGEPASISCRSSQSLLHSNGFNYFDWYLQKPGQSPQLLIFLVSNRASGVPDRFSGSGSGTDFTLKISRVEAEDVGIYYCMQALQTPLTFGGGTKVEIK
2 |  |  |  |  |  |  | binds | STIM003 (antibody, V domains shown, also called KY1044; SAR445256) VH: EVQLVESGGGVVRPGGSLRLSCVASGVTFDDYGMSWVRQAPGKGLEWVSGINWNGGDTDYSDSVKGRFTISRDNAKNSLYLQMNSLRAEDTALYYCARDFYGSGSYYHVPFDYWGQGILVTVSS VL: EIVLTQSPGTLSLSPGERATLSCRASQSVSRSYLAWYQQKRGQAPRLLIYGASSRATGIPDRFSGDGSGTDFTLSISRLEPEDFAVYYCHQYDMSPFTFGPGTKVDIKR
3 | > 5 | > 5 | > 10 倍 | > 10 倍 | > 1 | > 1 |  | CL-74570 (antibody, V domains shown) VH: EVQLVESGGGVIRPGGSLRLSCAASGFTFDDYGMSWVRQAPGKGLEWVSGINWIGDNTDYADSVKGRFTISRDNAKNSLYLQMNSLRAEDTALYYCARDYFGSGSYYNVPF VL: not shown

Source: patent CN117460529A (dated 2024)
